The supplement of paper PMC10567573

Test: protein stability index of a GFP-peptide fusion (GPS, HEK-293T) (PSI 1-6); higher = more stable
Conditions: c terminus: native
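Also: lentivirally expressed fusion library, cells FACS-sorted into six equal-sized GFP/DsRed ratio bins, PSI computed from sequencing read fractions per bin weighted by bin number.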

Q: With DGWIRVSSDNVADLHEKYSGSTPI [PSMB5 addI] as the protein, how does the protein stability index (parent: NP_002788.1) read?
A: 4.5

Q: Which protein stability index (parent: NP_006221.1) does the source give for CQPISFSGFGAEDDDLGGLGLGPI [POLD2 addI] here?
A: 2.66

Q: Which protein stability index (parent: NP_009172.2) does the source give for LPALFTDLYSQEITAEEAREALPI [SNF8 addI] here?
A: 3.3

Q: Which protein stability index (parent: NP_015628.1) does the source give for EQRNSRWNTVLRAVKAKTHHLEPI [TRPA1 addI] here?
A: 4.42
